Substitutions are numbered along the chain they refer to. Numbers in names are those of the source. Each block holds one molecule with its values, some of them ahead of it.
Tests used:
CmGH1 = molecular target: T1, CmGH1 (Croceicoccus marinus, UniProt A0A1Z1FG87); assay: residual p-NPG hydrolysis with added glucose; assay type: biochemical; conditions: p-NPG substrate; product inhibition
T1 construct: gene A9D14_15590; N-terminal His6-SUMO tag (pSMT3) cut with Ulp1; expressed in E. coli BL21 (DE3)

purified protein = substrate: O=[N+]([O-])c1ccc(O[C@@H]2O[C@H](CO)[C@@H](O)[C@H](O)[C@H]2O)cc1; assay: purified protein; conditions: conditions of the Km not stated, optimum pH 9.0, 55°C

% relative activity remaining at 200 mM (CmGH1): > 30%
Molecule: OC[C@H]1OC(O)[C@H](O)[C@@H](O)[C@@H]1O (some centres unmarked) [glucose]

B1: CmGH1 (Croceicoccus marinus) (protein)
chain: MTSDLIAKLSVNAGEPIGNMRQLHGTSGIPAPAPGTDSVPDILDVWRNAQVTLVRSYDWVSRLDTIDNPTSLFPDWSADPSDPASYNFAATDTWVGQTRSIGANILFTIASEIPANKQPARDLAKYEQVVENIVRHYVCGWGDGFENAVSHWEFGDQPDFGKLHFSGTPDQFYEMYAAAARAVKRVDPALKVGGPCVAFPLNEGPFREGFLDYVKQQSVPLDFLSWMWYGDNSRDPMDFRTIAAEVRAIVDKYGFTDTELLLSYWSMTGIPTAKFEDFDNAAFLAAAAIYMQDSEVDKAIFFRADTGADFHYNFTDPAGIFEDDGSQNARTGAFQLVGQTLATTERLAITGGDDNGFAALAGRTADGDTIRILISNYAIPDMYLTARDRDVFEFQVPIGDQKTDMSLNVPPRRVDARSTGYSGYTLEIGHLPWGDGPHRVVRYRADRDHKGEMLDSHEGRGSSVTVQNKLAVSGVELIEITRVSS
Km (purified protein): 332 ± 38 µM
kcat (purified protein): 0.0358 ± 0.00135 s⁻¹

B2: CmGH1 (Croceicoccus marinus; Q157E) (protein)
chain: B1 chain with Q157E
Km (purified protein): 354.2 ± 42 µM
kcat (purified protein): 0.488 ± 0.0147 s⁻¹

— PMC6933502, “Structural and Functional Insights Into CmGH1, a Novel GH39 Family β-Glucosidase From Deep-Sea Bacterium” (Frontiers in Microbiology, 2019)
